Assay results taken from the Immune Epitope Database (IEDB).

Tests used:
HLA-B*07:02 = test: IEDB peptide-MHC binding, purified MHC/direct/fluorescence; filed as Kd, often an IC50 or EC50 that approximates it; ≥ and ≤ were set here for values at or beyond the usual limits of such assays
HLA-B*15:01 [1] = test: as above
HLA-B*51:01 [2] = test: as above; conditions: source organism: Rickettsia conorii
HLA-C*04:01 = test: as above; conditions: source organism: Rickettsia sibirica 246
HLA-C*05:01 = test: as above
HLA-A*02:01 = test: IEDB peptide-MHC binding, purified MHC/competitive/fluorescence; filed as Kd, often an IC50 or EC50 that approximates it; ≥ and ≤ were set here for values at or beyond the usual limits of such assays
HLA-A*24:02 = test: as above; conditions: source organism: Yersinia pestis Nepal516
HLA-A*32:07 = test: as above; conditions: source organism: Yersinia pestis Nepal516
HLA-A*32:15 = test: as above
HLA-A*68:23 = test: as above
HLA-B*15:01 [3] = test: as above
HLA-B*15:42 = test: as above
HLA-B*40:13 = test: as above
HLA-B*45:06 = test: as above
HLA-B*58:01 [4] = test: as above; conditions: source organism: Yersinia pestis Nepal516
HLA-B*83:01 = test: as above
HLA-C*06:02 = test: as above
HLA-B*48:01 [5] = test: as above; conditions: source organism: Yersinia pestis Nepal516
HLA-A*01:01 = test: IEDB peptide-MHC binding, purified MHC/direct/fluorescence; filed as Kd, often an IC50 or EC50 that approximates it; ≥ and ≤ were set here for values at or beyond the usual limits of such assays; conditions: source organism: Camelpox virus CMS
HLA-A*03:01 [6] = test: as above; conditions: source organism: Camelpox virus CMS
HLA-A*11:01 = test: as above; conditions: source organism: Camelpox virus CMS
HLA-A*31:01 = test: as above; conditions: source organism: Camelpox virus CMS
HLA-A*69:01 = test: as above; conditions: source organism: Camelpox virus CMS
HLA-B*18:01 [7] = test: as above; conditions: source organism: Camelpox virus CMS
HLA-B*27:05 = test: as above; conditions: source organism: Camelpox virus CMS
HLA-B*40:01 = test: as above; conditions: source organism: Camelpox virus CMS
HLA-B*46:01 = test: as above; conditions: source organism: Camelpox virus CMS
HLA-B*48:01 [8] = test: as above; conditions: source organism: Camelpox virus CMS
HLA-B*57:01 [9] = test: as above; conditions: source organism: Camelpox virus CMS
HLA-B*58:01 [10] = test: as above; conditions: source organism: Camelpox virus CMS
HLA-A*26:03 = test: IEDB peptide-MHC binding, purified MHC/competitive/fluorescence; filed as Kd, often an IC50 or EC50 that approximates it; ≥ and ≤ were set here for values at or beyond the usual limits of such assays; conditions: source organism: Variola virus
HLA-A*68:02 = test: as above; conditions: source organism: Variola virus
HLA-B*15:17 = test: as above
HLA-A*02:12 = test: as above; conditions: source organism: Escherichia coli O139:H28 str. E24377A
HLA-A*03:01 [11] = test: as above; conditions: source organism: Escherichia coli O139:H28 str. E24377A
HLA-A*25:01 = test: as above; conditions: source organism: Escherichia coli O139:H28 str. E24377A
HLA-A*26:01 = test: as above; conditions: source organism: Escherichia coli O139:H28 str. E24377A
HLA-A*29:02 = test: as above; conditions: source organism: Escherichia coli O139:H28 str. E24377A
HLA-A*80:01 = test: as above; conditions: source organism: Escherichia coli O139:H28 str. E24377A
HLA-B*18:01 [12] = test: as above; conditions: source organism: Escherichia coli O139:H28 str. E24377A
HLA-B*27:03 = test: as above; conditions: source organism: Escherichia coli O139:H28 str. E24377A
HLA-B*39:01 = test: as above; conditions: source organism: Escherichia coli O139:H28 str. E24377A
HLA-B*51:01 [13] = test: as above; conditions: source organism: Escherichia coli O139:H28 str. E24377A
HLA-B*57:01 [14] = test: as above; conditions: source organism: Escherichia coli O139:H28 str. E24377A
HLA-C*12:03 = test: IEDB peptide-MHC binding, purified MHC/direct/fluorescence; filed as Kd, often an IC50 or EC50 that approximates it; ≥ and ≤ were set here for values at or beyond the usual limits of such assays; conditions: source organism: human gammaherpesvirus 4
HLA-B*27:20 = test: IEDB peptide-MHC binding, purified MHC/competitive/fluorescence; filed as Kd, often an IC50 or EC50 that approximates it; ≥ and ≤ were set here for values at or beyond the usual limits of such assays; conditions: source organism: human gammaherpesvirus 4
HLA-C*14:02 = test: as above; conditions: source organism: human gammaherpesvirus 4
[15] = source organism: Rickettsia sibirica 246
[16] = source organism: Yersinia pestis Nepal516
[17] = source organism: Camelpox virus CMS
[18] = source organism: Escherichia coli O139:H28 str. E24377A
[19] = source organism: human gammaherpesvirus 4

FADSDNIAM was tested, and the Kd (HLA-B*07:02; source organism: Rickettsia conorii) was ≥ 20 µM, the Kd (HLA-B*15:01 [1]; [15]) was ≥ 20 µM and the Kd (HLA-B*51:01 [2]) was ≥ 20 µM. For the same sequence, the Kd (HLA-C*04:01) was ≥ 20 µM and the Kd (HLA-C*05:01; [15]) was ≤ 0.001 µM.

In the case of MLYPLLWMF, the Kd (HLA-A*02:01; [16]) is reported as 0.169 µM, the Kd (HLA-A*24:02) is reported as 0.0377 µM and the Kd (HLA-A*32:07) is reported as 0.599 µM. For the same sequence, the Kd (HLA-A*32:15; [16]) was 0.155 µM, the Kd (HLA-A*68:23; [16]) was 0.968 µM and the Kd (HLA-B*15:01 [3]; [16]) was 0.406 µM. The Kd (HLA-B*15:42; [16]) was ≥ 5 µM, the Kd (HLA-B*40:13; [16]) was 3.5 µM and the Kd (HLA-B*45:06; [16]) was ≥ 5 µM. The Kd (HLA-B*58:01 [4]) was 2.06 µM, the Kd (HLA-B*83:01; [16]) was ≥ 5 µM and the Kd (HLA-C*06:02; [16]) was 3.57 µM.

Work on RMAMIPRTL yielded a Kd (HLA-B*48:01 [5]) of 0.0873 µM.

With RVFDKADGK the Kd (HLA-A*01:01) was ≥ 20 µM, the Kd (HLA-A*03:01 [6]) was 0.0788 µM and the Kd (HLA-A*11:01) was 0.127 µM. The Kd (HLA-A*31:01) was 0.0997 µM, the Kd (HLA-A*69:01) was ≥ 20 µM and the Kd (HLA-B*07:02; [17]) was ≥ 20 µM. For the same sequence, the Kd (HLA-B*15:01 [1]; [17]) was ≥ 20 µM, the Kd (HLA-B*18:01 [7]) was ≥ 20 µM and the Kd (HLA-B*27:05) was ≥ 20 µM. For the same sequence, the Kd (HLA-B*40:01) was ≥ 20 µM, the Kd (HLA-B*46:01) was ≥ 20 µM and the Kd (HLA-B*48:01 [8]) was ≥ 20 µM. The Kd (HLA-B*57:01 [9]) was ≥ 20 µM, the Kd (HLA-B*58:01 [10]) was ≥ 20 µM and the Kd (HLA-A*02:01; source organism: Variola virus) was 1.05 µM. The Kd (HLA-A*26:03) was ≥ 20 µM, the Kd (HLA-A*68:02) was ≥ 20 µM and the Kd (HLA-B*15:17; source organism: Variola virus) was ≥ 20 µM.

SIPFGLMSA was tested, and the Kd (HLA-A*02:01; [18]) was ≥ 20 µM, the Kd (HLA-A*02:12) was 0.881 µM and the Kd (HLA-A*03:01 [11]) was ≥ 20 µM. The Kd (HLA-A*25:01) was ≥ 20 µM, the Kd (HLA-A*26:01) was ≥ 20 µM and the Kd (HLA-A*29:02) was ≥ 20 µM. For the same sequence, the Kd (HLA-A*80:01) was ≥ 20 µM, the Kd (HLA-B*15:01 [3]; [18]) was ≥ 20 µM and the Kd (HLA-B*15:17; [18]) was ≥ 20 µM. For the same sequence, the Kd (HLA-B*18:01 [12]) was ≥ 20 µM, the Kd (HLA-B*27:03) was ≥ 20 µM and the Kd (HLA-B*39:01) was ≥ 20 µM. The Kd (HLA-B*51:01 [13]) was ≥ 20 µM and the Kd (HLA-B*57:01 [14]) was ≥ 20 µM.

YAMAIRQAI was tested, and the Kd (HLA-C*05:01; [19]) was 2.23 µM, the Kd (HLA-C*12:03) was ≤ 0.001 µM and the Kd (HLA-A*32:15; [19]) was 0.092 µM. For the same sequence, the Kd (HLA-A*68:23; [19]) was 0.19 µM, the Kd (HLA-B*15:42; [19]) was ≥ 5 µM and the Kd (HLA-B*27:20) was 0.0299 µM. The Kd (HLA-B*40:13; [19]) was 0.0239 µM, the Kd (HLA-B*45:06; [19]) was ≥ 5 µM and the Kd (HLA-B*83:01; [19]) was 1.02 µM. It also gave a Kd (HLA-C*06:02; [19]) of 0.101 µM and a Kd (HLA-C*14:02) of 0.0426 µM.
